This series deals with the molecule itself. The experiment in a line: cryo-EM structure; TWIK1 in MSP1D1 nanodiscs (2:1:1 DOPE:POPS:POPC), 20 mM HEPES pH 7.4, 150 mM KCl, 1 mM EDTA; C2 symmetry imposed; homodimer.

B1: Rattus norvegicus TWIK1 (natural protein)
chain: MLQSLAGSSCVRLVERHRSAWCFGFLVLGYLLYLVFGAVVFSSVELPYEDLLRQELRKLKRRFLEEHECLSEPQLEQFLGRVLEASNYGVSVLSNASGNWNWDFTSALFFASTVLSTTGYGHTVPLSDGGKAFCIIYSVIGIPFTLLFLTAVVQRVTVHVTRRPVLYFHIRWGFSKQVVAIVHAVLLGFVTVSCFFFIPAAVFSVLEDDWNFLESFYFCFISLSTIGLGDYVPGEGYNQKFRELYKIGITCYLLLGLIAMLVVLETFCELHELKKFRKMFYVKKDKDEDQVHIMEHDQLSFSSITEQAAGLKEEQKQNEPFVASQSPPYEDGSANHSNSLEVLFQ
notes: TWIK1 (K2P1.1, KCNK1), Rattus norvegicus, Uniprot Q9Z2T2, full length; gene codon-optimized for Pichia pastoris; W20-Y281 modeled at pH 5.5, G24-F280 at pH 7.4; linker SNS and the part of the human rhinovirus 3C site (LEVLFQ/GP) left on the C-terminus after cleavage of EGFP-His10; cleaved on the resin with PPX before SEC and nanodisc reconstitution (MSP1D1 at pH 7.4, MSPE3D1 at pH 5.5); also …
On to B1, for which the “stoichiometry N” value was 2.

The record behind these values is article PMC9184524, “Structural Basis for pH-gating of the K^+ channel TWIK1 at the selectivity filter” (Nature Communications, 2022).
